The text below walks through data of PMC12948210 (2025).

Common to all, as to test: GST pull-down; 500 mM NaCl; denaturing pull-down (His-DDX21 purified in urea or guanidine)
Experiment [1] concerns the target T1, GST-tagged EIF1AX IDR2 fragment (Homo sapiens (Human), UniProt P47813).
T1 chain: DIGDDDEDIDDI

Experiment [2] deals with T2, GST-tagged EIF1AX IDR1 fragment (Homo sapiens (Human), UniProt P47813).
T2 chain: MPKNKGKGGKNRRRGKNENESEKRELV

Experiment [3] has as its target T3, GST-tagged EIF1AX RBP fragment (Homo sapiens (Human), UniProt P47813).
T3 chain: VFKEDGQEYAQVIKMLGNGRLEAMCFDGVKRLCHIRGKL

B1: His-DDX21 (protein)
chain: MPGKLRSDAGLESDTAMKKGETLRKQTEEKEKKEKPKSDKTEEIAEEEETVFPKAKQVKKKAEPSEVDMNSPKSKKAKKKEEPSQNDISPKTKSLRKKKEPIEKKVVSSKTKKVTKNEEPSEEEIDAPKPKKMKKEKEMNGETREKSPKLKNGFPHPEPDCNPSEAASEESNSEIEQEIPVEQKEGAFSNFPISEETIKLLKGRGVTFLFPIQAKTFHHVYSGKDLIAQARTGTGKTFSFAIPLIEKLHGELQDRKRGRAPQVLVLAPTRELANQVSKDFSDITKKLSVACFYGGTPYGGQFERMRNGIDILVGTPGRIKDHIQNGKLDLTKLKHVVLDEVDQMLDMGFADQVEEILSVAYKKDSEDNPQTLLFSATCPHWVFNVAKKYMKSTYEQVDLIGKKTQKTAITVEHLAIKCHWTQRAAVIGDVIRVYSGHQGRTIIFCETKKEAQELSQNSAIKQDAQSLHGDIPQKQREITLKGFRNGSFGVLVATNVAARGLDIPEVDLVIQSSPPKDVESYIHRSGRTGRAGRTGVCICFYQHKEEYQLVQVEQKAGIKFKRIGVPSATEIIKASSKDAIRLLDSVPPTAISHFKQSAEKLIEEKGAVEALAAALAHISGATSVDQRSLINSNVGFVTMILQCSIEMPNISYAWKELKEQLGEEIDSKVKGMVFLKGKLGVCFDVPTASVTEIQEKWHDSRRWQLSVATEQPELEGPREGYGGFRGQREGSRGFRGQRDGNRRFRGQREGSRGPRGQRSGGGNKSNRSQNKGQKRSFSKAFGQ
B1: the binding result was “no binding” in experiment [1], “no binding” in experiment [2] and “binds” in experiment [3].
